Source: patent publication US20180185504A1 (Regeneron, published 2018)
Where two headings read alike, the source gives them in different places.

T1: human prolactin receptor (PRLR) (human, UniProt P16471 25-622)
T1 sequence: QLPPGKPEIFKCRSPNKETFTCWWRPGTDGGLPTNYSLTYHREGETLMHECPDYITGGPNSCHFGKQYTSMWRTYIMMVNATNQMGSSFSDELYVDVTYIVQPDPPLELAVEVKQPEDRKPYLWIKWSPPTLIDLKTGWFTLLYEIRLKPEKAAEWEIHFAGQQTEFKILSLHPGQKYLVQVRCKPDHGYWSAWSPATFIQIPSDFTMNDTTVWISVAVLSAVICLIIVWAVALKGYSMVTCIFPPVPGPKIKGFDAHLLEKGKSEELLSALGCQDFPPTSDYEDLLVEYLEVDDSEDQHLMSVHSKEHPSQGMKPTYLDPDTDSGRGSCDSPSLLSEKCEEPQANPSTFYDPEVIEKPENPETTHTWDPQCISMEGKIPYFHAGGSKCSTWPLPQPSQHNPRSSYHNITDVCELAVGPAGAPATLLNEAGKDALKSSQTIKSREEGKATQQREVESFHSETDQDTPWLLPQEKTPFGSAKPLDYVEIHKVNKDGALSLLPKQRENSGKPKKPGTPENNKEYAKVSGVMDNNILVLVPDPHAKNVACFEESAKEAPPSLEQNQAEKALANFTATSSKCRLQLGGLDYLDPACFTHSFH

B1: H1H6975N-DM1 (antibody, human IgG1, V domains shown)
VH: EVHLVESGGGLVQPGGSLRLSCAASGFTFSSYEMNWVRQTPGKGLEWISHISSRSVIIYYADSVKGRFTISRDNAKNSLFLQMNSLRAEDTAVYFCAGITIFGIPEYWGQGTLVTVSS
VL: EIVLTQSPATLSLSPGERATLSCRASQSVSSYFAWYQQKPGQAPRLLIYDASSRATGIPTRFSGSGSGTDFTLTISSLEPEDFAVYYCQQRSSWPITFGQGTRLEIK
modifications: DM1 conjugated through SMCC linker; attachment residues not stated
B2: H1H6765P-DM1 (antibody, human IgG1, V domains shown)
VH: EVQLVESGGGVVRPGGSLRLSCVGSGFSFDDHGMNWVRQGPGKGLEWVSGFNWNGGSTNYAESVKGRFTISRDNARNSLFLQMNSLRAEDTALYYCVRGRSGWFNDAFDVWGPGTMVTVSS
VL: EIVLTQSPGTLSLSPGERATLSCRASQTINSNYLAWYRQKPGQTPRLLIYGTSSRATGIPDRFSGSGSGTDFSLTISRLEPEDFAVFYCQQYAGLPTFGPGTKVDIK
modifications: DM1 conjugated through SMCC linker; attachment residues not stated
B3: H1H6765P-mc-VC-PAB-MMAE (antibody, human IgG1, V domains shown)
VH: EVQLVESGGGVVRPGGSLRLSCVGSGFSFDDHGMNWVRQGPGKGLEWVSGFNWNGGSTNYAESVKGRFTISRDNARNSLFLQMNSLRAEDTALYYCVRGRSGWFNDAFDVWGPGTMVTVSS
VL: EIVLTQSPGTLSLSPGERATLSCRASQTINSNYLAWYRQKPGQTPRLLIYGTSSRATGIPDRFSGSGSGTDFSLTISRLEPEDFAVFYCQQYAGLPTFGPGTKVDIK
modifications: MMAE conjugated through cleavable mc-vc-PAB linker; attachment residues not stated

How the values were obtained:
Assay in all cases: cell-based or functional assay
[1] = target: T1, human prolactin receptor (PRLR)
[2] = target: T1, human prolactin receptor (PRLR); remark: listed apart in the source
[3] = target: T1, human prolactin receptor (PRLR); remark: listed apart in the source
[4] = target: T1, human prolactin receptor (PRLR); remark: listed apart in the source
[5] = target: T1, human prolactin receptor (PRLR); remark: listed apart in the source

Binder | % Kill, T47D cells [1] [%] | IC50, cell viability, T47D cells [1] [nM] | % Kill, PC3/PRLR cells [2] [%] | IC50, cell viability, PC3/PRLR cells [2] [nM] | % Kill, MCF7/PRLR cells [3] [%] | % Kill, MCF7 cells [3] [%] | % Kill, T47D cells [3] [%] | IC50, cell viability, MCF7/PRLR cells [3] [nM] | IC50, cell viability, MCF7 cells [3] [nM] | IC50, cell viability, T47D cells [3] [nM] | % Kill, MCF7/ATCC cells [4] [%] | % Kill, MCF7/PRLR cells [4] [%] | IC50, cell viability, MCF7/ATCC cells [4] [nM] | IC50, cell viability, MCF7/PRLR cells [4] [nM] | % Kill, MCF7/ATCC cells [5] [%] | % Kill, MCF7/PRLR cells [5] [%] | % Kill, PC3/hPRLR cells [5] [%] | IC50, cell viability, MCF7/ATCC cells [5] [nM] | IC50, cell viability, MCF7/PRLR cells [5] [nM] | IC50, cell viability, PC3/hPRLR cells [5] [nM]
B1 | 100 | 2 | 68 | 2.7 | 87 | 73 | 80 | 0.49 | 150 | 6.9 | 70 | 80 | 200 | 0.2 |  |  |  |  |  | 
B2 | 90 | 1 | 70 | 0.57 | 84 | 68 | 78 | 0.18 | 150 | 1.63 | 70 | 90 | 150 | 0.3 | 71 | 81 | 83 | 90 | 0.1 | 0.3
B3 | 90 | 1 |  |  |  |  |  |  |  |  | 40 | 90 | 150 | 0.2 | 38 | 86 | 85 | 150 | 0.2 | 0.4
